Measured values as given in US7491501B2, “Methods for identifying modulators of intracellular aggregate formation” (Auburn University, priority 2003, dated 2009).

Experiments:
p62-TRAF6 interaction = target: T1, p62-TRAF6 interaction (Homo sapiens, UniProt Q9Y4K3); assay: p62-TRAF6 interaction in HEK cells after IL-1 stimulation, p62 UBA domain pull-down (FIG. 2C); format: cell-based; settings: increasing doses of peptide
T1 construct: endogenous in cells; host or cells: HEK 293
T1 sequence (Q9Y4K3 1-522): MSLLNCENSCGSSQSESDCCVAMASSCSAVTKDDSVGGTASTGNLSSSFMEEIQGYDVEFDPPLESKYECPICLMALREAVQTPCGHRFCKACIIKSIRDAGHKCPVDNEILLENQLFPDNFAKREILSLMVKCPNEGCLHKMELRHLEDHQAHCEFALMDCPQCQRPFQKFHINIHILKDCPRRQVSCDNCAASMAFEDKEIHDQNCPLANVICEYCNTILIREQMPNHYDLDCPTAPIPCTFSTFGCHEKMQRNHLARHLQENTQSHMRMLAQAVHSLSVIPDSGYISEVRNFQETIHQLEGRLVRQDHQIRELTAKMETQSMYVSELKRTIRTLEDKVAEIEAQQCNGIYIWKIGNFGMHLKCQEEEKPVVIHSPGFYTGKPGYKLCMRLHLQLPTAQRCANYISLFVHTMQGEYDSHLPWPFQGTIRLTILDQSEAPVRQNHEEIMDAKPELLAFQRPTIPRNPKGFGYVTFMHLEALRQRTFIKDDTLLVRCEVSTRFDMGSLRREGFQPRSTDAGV
Experimental: GST Pull-Down Assay—Glutathione beads coupled with p62 UBA domain were washed three times with binding buffer (20 mM Tris-HCl, pH 7.6, 50 mM NaCl, 0.1% Nonidet P-40, […], 1 mM phenylmethylsulfonyl fluoride) containing 25 μg/ml of BSA. For each mg of lysate, 2.5 μg of GST-UBA domain was added and rotated for 2 h at room temperature. The beads were washed 3 times with binding buffer and boiled in SDS-PAGE sample buffer, followed by separation employing a 7.5% SDS-gel, and western blotting with appropriate antibody.
A peptide (plain type, SEQ ID NO. 6) containing the TRAF6-binding motif present in p62 (underlined type) along with the hydrophobic sequence containing the cell-permeable motif (italicized type) from Kaposi fibroblast growth factor signal sequence was synthesized ([…]-[…]) (SEQ ID NO. 4) or a control peptide with mutant amino acids in the interaction motif (AAVA […]-[…])(SEQ ID NO. 5). […] HEK cells were treated or not with increasing doses of control or TRAF6 inhibitory peptide, followed by stimulation with IL-1. Lysates were prepared and included in a pull-down employing the UBA domain of p62. Should the p62-UBA domain bind K63-polyubiquitinated substrate proteins, a dose-dependent reduction in interaction of the lysates would occur with lysates prepared from cells pretreated with TRAF6 inhibitory peptide. In fact, this is what was found (FIG. 2C).

[1] = target: T2, interaction of p62 with TRAF6 (Rattus norvegicus, UniProt B5DF45); assay: TRAF6 immunoprecipitation and Western blot for p62/UbcH7 in NGF-stimulated PC12 cells; format: cell-based; settings: NGF 15 min
T2 construct: followed by NGF stimulation for 15 min and immunoprecipitation of TRAF6 followed by Western blotting for p62; endogenous in cells; host or cells: PC12
Experimental: Immunoprecipitation and Western blotting—Each mg of lysate/inclusion bodies was incubated with 41 ng of primary antibody at 4° C. for 3 h and then with 50 μl of 50% agarose-coupled secondary antibody for 2 more hours at 4 C. The beads were washed three times with lysis buffer, eluted by adding SDS-PAGE sample buffer, and subjected to SDS-PAGE in 7.5-12% acrylamide gels. Immunoblotting was performed on nitrocellulose membranes and analyzed by western blotting with ECL detection reagents (Amersham Biosciences).
The region spanning amino acids 225-251 is necessary for the interaction of p62 with TRAF6. The peptide containing TRAF6 binding motif in p62 along with the hydrophobic sequence containing the cell-permeable motif from Kaposi fibroblast growth factor sequence, […]-[…] (SEQ ID NO. 4) and control peptide […]-[…] (SEQ ID NO. 5) was synthesized. As a preliminary step, PC12 cells were pretreated with various concentrations of peptide for 5 h, followed by NGF stimulation for 15 min and immunoprecipitation with TRAF6 and western blotted with p62. […] The peptide was then tested for its ability to block NGF-induced tau polyubiquitination (FIG. 13A).
The peptide containing the TRAF6-binding motif in p62 along with the hydrophobic sequence containing the cell-permeable motif from Kaposi fibroblast growth factor signal sequence […]-[…] (SEQ ID NO. 4) and control peptide […]-[…] (SEQ ID NO. 5) was synthesized. As a preliminary step, PC12 cells were pretreated with different concentrations (75-300 μM) of TRAF6 peptide for 5 hours followed by NGF stimulation for 15 min and immunoprecipitation of TRAF6 followed by Western blotting for p62. […] To address whether TRAF6 peptide affects the interaction of p62 and UbcH7 with TRAF6, PC12 cells were treated with or without 150 μM of control peptide or TRAF6 peptide for 5 hours and then stimulated with NGF for 15 min. By immunoprecipitating TRAF6, TRAF6 peptide (150 μM) abrogated the interaction of p62 with TRAF6, but not UbcH7, upon NGF treatment (FIG. 8A). […] The ability of the TRAF6 peptide to impair the ubiquitination process was investigated. Lysates recovered from NGF treated cells were immunoprecipitated with TrkA receptor antibody and blotted for ubiquitin or the receptor (FIG. 15B). […] The ability of the peptide to interrupt the formation of the functional TrkA-p62-TRAF6-UbcH7 complex on NGF stimulation as well was also investigated. TrkA was immunoprecipitated and blotted for the presence of each protein in the complex (FIG. 15C).

T2 sequence (B5DF45 whole entry): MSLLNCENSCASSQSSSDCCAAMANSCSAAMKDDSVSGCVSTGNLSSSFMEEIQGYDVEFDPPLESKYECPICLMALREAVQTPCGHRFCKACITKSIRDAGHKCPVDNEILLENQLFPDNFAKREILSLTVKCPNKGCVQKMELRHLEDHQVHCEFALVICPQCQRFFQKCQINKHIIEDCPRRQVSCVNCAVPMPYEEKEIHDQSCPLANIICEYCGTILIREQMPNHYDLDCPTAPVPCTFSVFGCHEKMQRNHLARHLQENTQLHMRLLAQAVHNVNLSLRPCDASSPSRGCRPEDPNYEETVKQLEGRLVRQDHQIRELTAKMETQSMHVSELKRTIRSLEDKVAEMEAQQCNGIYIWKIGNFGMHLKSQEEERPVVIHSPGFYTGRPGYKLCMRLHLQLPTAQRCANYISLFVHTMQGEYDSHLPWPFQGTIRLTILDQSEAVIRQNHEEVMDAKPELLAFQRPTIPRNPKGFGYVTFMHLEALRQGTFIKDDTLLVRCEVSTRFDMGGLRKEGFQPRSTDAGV
T2 sequence (D3Z8W5 1-154 partner): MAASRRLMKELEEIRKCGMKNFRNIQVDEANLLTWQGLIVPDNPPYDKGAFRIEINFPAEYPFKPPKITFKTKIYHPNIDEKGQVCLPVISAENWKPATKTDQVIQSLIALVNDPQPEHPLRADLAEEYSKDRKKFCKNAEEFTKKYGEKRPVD

interaction of UbcH7 with TRAF6 ([1]; 150 μM peptide 5 hours): not
interaction of p62 with TRAF6 ([1]; 150 μM peptide 5 hours): completely abrogated
optimum dose to block the interaction of p62 with TRAF6 ([1]; 75-300 μM peptide 5 hours, not shown): 150 µM
concentration of peptide found to block TRAF6 interaction with p62 ([1]; peptide 5 h, not shown): One hundred and fifty
Substance: AAVALLPAVLLALLAP-ESASGPSEDPSVNFLK (AAVALLPAVLLALLAPESASGPSEDPSVNFLK; artificial sequence for cell permeable peptide) [TRAF6 peptide]
p62-TRAF6 interaction (p62-TRAF6 interaction): blocked p62-TRAF6 interaction in a dose-dependent fashion
